Three molecules from patent CN114573698A (dated 2022) can be followed below.

The target in experiment [1] is T1, 人FcRn(β2M)-His蛋白 (human FcRn-ECD) (human, UniProt P61769 21-119).
T1 construct: Bought protein (Acro FCM-H5286); also called 人FcRn-ECD; FcRn-His
In words: indirect ELISA, plate-bound human FcRn-ECD (method of Example 2.1). (In general: An ELISA detects its analyte on a solid surface through an enzyme-linked reagent.)

Experiment [2] deals with T1, 人FcRn(β2M)-His蛋白 (human FcRn-ECD). As to the kind of experiment: blocking ELISA pH 6.0, human IgG-biotin on plate-bound human FcRn-ECD (method of Example 4).
The target is the same in experiment [3]. As to the kind of experiment: blocking ELISA, human IgG on plate-bound human FcRn-ECD.
For experiment [4], the target named is T2, α2-Fc (human).
T2 construct: no linker is mentioned; also called FcRn功能结构域α2与人Fc融合蛋白; FcRnα2
T2 chain: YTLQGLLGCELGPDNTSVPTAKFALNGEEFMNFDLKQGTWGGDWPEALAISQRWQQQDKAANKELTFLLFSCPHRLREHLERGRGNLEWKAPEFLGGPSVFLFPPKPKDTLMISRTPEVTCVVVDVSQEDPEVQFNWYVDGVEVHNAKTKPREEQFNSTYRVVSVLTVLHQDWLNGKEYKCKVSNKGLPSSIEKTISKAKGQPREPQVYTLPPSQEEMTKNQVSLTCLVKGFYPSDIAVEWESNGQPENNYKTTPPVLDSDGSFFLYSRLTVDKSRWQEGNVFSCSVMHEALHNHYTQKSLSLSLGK
As to the kind of experiment: Western blot on domain-Fc fusion. For orientation: Immunoblotting shows a protein as a band on a membrane.

Values joined by “and” are separate entries in the source; they are usually repeats but may differ in a detail not shown here. Equal entries are not always repeated.

T1 sequence (chain, as listed by the source limits assumed, chain 1 of 2): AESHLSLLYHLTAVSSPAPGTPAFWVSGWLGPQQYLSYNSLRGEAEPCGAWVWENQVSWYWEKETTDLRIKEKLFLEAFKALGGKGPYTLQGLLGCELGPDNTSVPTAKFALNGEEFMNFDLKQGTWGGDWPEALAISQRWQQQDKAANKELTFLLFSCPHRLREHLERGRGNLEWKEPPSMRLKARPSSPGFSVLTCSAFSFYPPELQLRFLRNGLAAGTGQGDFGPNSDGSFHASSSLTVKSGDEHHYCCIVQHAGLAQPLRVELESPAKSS
T1 sequence (P61769 21-119 limits assumed, chain 2 of 2): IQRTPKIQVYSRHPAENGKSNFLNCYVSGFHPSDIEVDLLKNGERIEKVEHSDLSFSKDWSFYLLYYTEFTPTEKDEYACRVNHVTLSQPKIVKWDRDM

B1: SPGA01-ch102 (antibody, human IgG4 S228P, kappa)
heavy: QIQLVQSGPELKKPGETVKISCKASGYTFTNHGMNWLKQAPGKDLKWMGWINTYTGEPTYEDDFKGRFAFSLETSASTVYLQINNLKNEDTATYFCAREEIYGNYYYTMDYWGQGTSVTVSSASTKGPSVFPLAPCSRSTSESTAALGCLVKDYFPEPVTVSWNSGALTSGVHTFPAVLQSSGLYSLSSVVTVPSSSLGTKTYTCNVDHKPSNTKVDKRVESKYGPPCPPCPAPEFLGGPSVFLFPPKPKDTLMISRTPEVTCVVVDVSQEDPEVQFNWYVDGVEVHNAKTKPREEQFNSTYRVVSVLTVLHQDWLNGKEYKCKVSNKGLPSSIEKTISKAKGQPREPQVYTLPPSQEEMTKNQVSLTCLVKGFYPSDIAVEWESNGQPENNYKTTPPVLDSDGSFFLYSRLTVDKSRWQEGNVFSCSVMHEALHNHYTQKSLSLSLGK
light: DIQMTQTTSSLSASLGDRVTISCSASQGISKYLNWYQQKPDGTVKLLIYYTSILHSGVPSRFSGSGSGTDYSLTISNLEPEDIATYFCQQYSKLPPTFGGGTKLEITRTVAAPSVFIFPPSDEQLKSGTASVVCLLNNFYPREAKVQWKVDNALQSGNSQESVTEQDSKDSTYSLSSTLTLSKADYEKHKVYACEVTHQGLSSPVTKSFNRGEC
notes: also called 嵌合抗体SPGA01-ch102; SPGA1-ch102
For the molecule B1, the EC50 in experiment [1] is 0.00973 µg/mL and 0.06 nM. In addition, the IC50 in experiment [2] was 0.0514 µg/mL and 0.34 nM.

B2: SPGA01-ch102mu (antibody, human IgG4 S228P, kappa)
heavy: QIQLVQSGPELKKPGETVKISCKASGYTFTNHGMNWLKQAPGKDLKWMGWINTYTGEPTYEDDFKGRFAFSLETSASTVYLQINNLKNEDTATYFCAREEIYGNYYYTMDYWGQGTSVTVSSASTKGPSVFPLAPCSRSTSESTAALGCLVKDYFPEPVTVSWNSGALTSGVHTFPAVLQSSGLYSLSSVVTVPSSSLGTKTYTCNVDHKPSNTKVDKRVESKYGPPCPPCPAPEFLGGPSVFLFPPKPKDTLYITREPEVTCVVVDVSQEDPEVQFNWYVDGVEVHNAKTKPREEQFNSTYRVVSVLTVLHQDWLNGKEYKCKVSNKGLPSSIEKTISKAKGQPREPQVYTLPPSQEEMTKNQVSLTCLVKGFYPSDIAVEWESNGQPENNYKTTPPVLDSDGSFFLYSRLTVDKSRWQEGNVFSCSVMHEALKFHYTQKSLSLSLGK
light: B1 light
notes: also called 突变的嵌合抗体SPGA01-ch102mu
With B2, the EC50 in experiment [1] was 0.00976 µg/mL and 0.06 nM. In addition, the IC50 in experiment [3] was 0.0122 µg/mL and 0.08 nM.

B3: SPGA01-102 (antibody, V domains shown)
VH: QIQLVQSGPELKKPGETVKISCKASGYTFTNHGMNWLKQAPGKDLKWMGWINTYTGEPTYEDDFKGRFAFSLETSASTVYLQINNLKNEDTATYFCAREEIYGNYYYTMDYWGQGTSVTVSS
VL: DIQMTQTTSSLSASLGDRVTISCSASQGISKYLNWYQQKPDGTVKLLIYYTSILHSGVPSRFSGSGSGTDYSLTISNLEPEDIATYFCQQYSKLPPTFGGGTKLEIT
notes: Mouse monoclonal antibody from a hybridoma, purified on Protein G and detected with anti-mouse IgG; also called 鼠源抗人FcRn单克隆抗体
For B3, in experiment [4], the binding result is listed as “binds”.

As usually defined, the EC50 is the concentration giving half of the maximal effect. A lower EC50 goes with greater potency. As a reminder, the IC50 is the concentration that inhibits the measured activity by half. A high value points to weaker potency in that assay.
